Holding throughout (test): ITC; ITC: 20 mM Tris pH 7.25, 100 mM KCl, 5 mM MgCl2, 1 mM DTT, 298 K; protein titrated into RNA
Common to all, as to settings: protein: recombinant; tags: N-terminal His6 (TEV-cleavable); stem-loop with internal bulge

Data set [1] concerns the target T1, HsLARP6(70-300) W85A (Homo sapiens, UniProt Q9BRS8 70-300, W85A).
T1 sequence: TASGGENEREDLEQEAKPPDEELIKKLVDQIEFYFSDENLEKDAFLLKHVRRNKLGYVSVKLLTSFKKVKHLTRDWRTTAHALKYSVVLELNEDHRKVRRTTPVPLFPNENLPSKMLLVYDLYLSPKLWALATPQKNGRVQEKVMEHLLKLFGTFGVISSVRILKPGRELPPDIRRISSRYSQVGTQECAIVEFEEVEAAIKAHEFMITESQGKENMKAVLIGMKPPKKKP

The target of data set [2] is T2, HsLARP6(70-300) L187A (Homo sapiens, UniProt Q9BRS8 70-300, L187A).
T2 sequence: T1 sequence with A16W, L118A

Data set [3] addresses T3, HsLARP6(70-300) R245A (Homo sapiens, UniProt Q9BRS8 70-300, R245A).
T3 sequence: T1 sequence with A16W, R176A

Data set [4] deals with T4, HsLARP6(70-300) R249A (Homo sapiens, UniProt Q9BRS8 70-300, R249A).
T4 sequence: T1 sequence with A16W, R180A

Data set [5] has as its target T5, HsLARP6(70-300) W198A (Homo sapiens, UniProt Q9BRS8 70-300, W198A).
T5 sequence: T1 sequence with A16W, W129A

Data set [6] concerns the target T6, HsLARP6(70-300) E262A (Homo sapiens, UniProt Q9BRS8 70-300, E262A).
T6 sequence: T1 sequence with A16W, E193A

Substitutions are numbered along the chain they refer to.

In the case of CCACAAAGAGUCUACAUGUCUAGGGUCUAGACAUGUUCAGCUUUGUGG (structured_RNA) [48 nt RNA (collagen alpha1(I) 5' UTR SL)], the Kd worked out at 22 nM in data set [1]; 19 nM in data set [2]; 36 nM in data set [3]; 26 nM in data set [4]; 71 nM in data set [5]; 5.3 nM in data set [6].

(Values after article PMC4288179, “Synergic interplay of the La motif, RRM1 and the interdomain linker of LARP6 in the recognition of collagen mRNA expands the RNA binding repertoire of the La module”.)
